Results published in article PMC10279549 (Blood Advances, 2023).
Values belong to the molecule of their own block, whether it stands above or below them.

Legend:
Test in all cases: SPR
[1] = molecular target: Glu-Gly-Arg-chloromethylketone active site-blocked activated protein C (EGR-APC)
[2] = molecular target: Full-length wild-type recombinant factor V (FV-WT) (human, UniProt P12259 29-2224)
[3] = molecular target: Full-length recombinant factor V R506Q (FV Leiden) (human, UniProt P12259 29-2224, R506Q)
[4] = molecular target: Full-length recombinant factor V W1920R (FV Nara) (human, UniProt P12259 29-2224, W1920R)
Full-length recombinant factor V W1920R (FV Nara), sequence (P12259 29-2224 W1948R): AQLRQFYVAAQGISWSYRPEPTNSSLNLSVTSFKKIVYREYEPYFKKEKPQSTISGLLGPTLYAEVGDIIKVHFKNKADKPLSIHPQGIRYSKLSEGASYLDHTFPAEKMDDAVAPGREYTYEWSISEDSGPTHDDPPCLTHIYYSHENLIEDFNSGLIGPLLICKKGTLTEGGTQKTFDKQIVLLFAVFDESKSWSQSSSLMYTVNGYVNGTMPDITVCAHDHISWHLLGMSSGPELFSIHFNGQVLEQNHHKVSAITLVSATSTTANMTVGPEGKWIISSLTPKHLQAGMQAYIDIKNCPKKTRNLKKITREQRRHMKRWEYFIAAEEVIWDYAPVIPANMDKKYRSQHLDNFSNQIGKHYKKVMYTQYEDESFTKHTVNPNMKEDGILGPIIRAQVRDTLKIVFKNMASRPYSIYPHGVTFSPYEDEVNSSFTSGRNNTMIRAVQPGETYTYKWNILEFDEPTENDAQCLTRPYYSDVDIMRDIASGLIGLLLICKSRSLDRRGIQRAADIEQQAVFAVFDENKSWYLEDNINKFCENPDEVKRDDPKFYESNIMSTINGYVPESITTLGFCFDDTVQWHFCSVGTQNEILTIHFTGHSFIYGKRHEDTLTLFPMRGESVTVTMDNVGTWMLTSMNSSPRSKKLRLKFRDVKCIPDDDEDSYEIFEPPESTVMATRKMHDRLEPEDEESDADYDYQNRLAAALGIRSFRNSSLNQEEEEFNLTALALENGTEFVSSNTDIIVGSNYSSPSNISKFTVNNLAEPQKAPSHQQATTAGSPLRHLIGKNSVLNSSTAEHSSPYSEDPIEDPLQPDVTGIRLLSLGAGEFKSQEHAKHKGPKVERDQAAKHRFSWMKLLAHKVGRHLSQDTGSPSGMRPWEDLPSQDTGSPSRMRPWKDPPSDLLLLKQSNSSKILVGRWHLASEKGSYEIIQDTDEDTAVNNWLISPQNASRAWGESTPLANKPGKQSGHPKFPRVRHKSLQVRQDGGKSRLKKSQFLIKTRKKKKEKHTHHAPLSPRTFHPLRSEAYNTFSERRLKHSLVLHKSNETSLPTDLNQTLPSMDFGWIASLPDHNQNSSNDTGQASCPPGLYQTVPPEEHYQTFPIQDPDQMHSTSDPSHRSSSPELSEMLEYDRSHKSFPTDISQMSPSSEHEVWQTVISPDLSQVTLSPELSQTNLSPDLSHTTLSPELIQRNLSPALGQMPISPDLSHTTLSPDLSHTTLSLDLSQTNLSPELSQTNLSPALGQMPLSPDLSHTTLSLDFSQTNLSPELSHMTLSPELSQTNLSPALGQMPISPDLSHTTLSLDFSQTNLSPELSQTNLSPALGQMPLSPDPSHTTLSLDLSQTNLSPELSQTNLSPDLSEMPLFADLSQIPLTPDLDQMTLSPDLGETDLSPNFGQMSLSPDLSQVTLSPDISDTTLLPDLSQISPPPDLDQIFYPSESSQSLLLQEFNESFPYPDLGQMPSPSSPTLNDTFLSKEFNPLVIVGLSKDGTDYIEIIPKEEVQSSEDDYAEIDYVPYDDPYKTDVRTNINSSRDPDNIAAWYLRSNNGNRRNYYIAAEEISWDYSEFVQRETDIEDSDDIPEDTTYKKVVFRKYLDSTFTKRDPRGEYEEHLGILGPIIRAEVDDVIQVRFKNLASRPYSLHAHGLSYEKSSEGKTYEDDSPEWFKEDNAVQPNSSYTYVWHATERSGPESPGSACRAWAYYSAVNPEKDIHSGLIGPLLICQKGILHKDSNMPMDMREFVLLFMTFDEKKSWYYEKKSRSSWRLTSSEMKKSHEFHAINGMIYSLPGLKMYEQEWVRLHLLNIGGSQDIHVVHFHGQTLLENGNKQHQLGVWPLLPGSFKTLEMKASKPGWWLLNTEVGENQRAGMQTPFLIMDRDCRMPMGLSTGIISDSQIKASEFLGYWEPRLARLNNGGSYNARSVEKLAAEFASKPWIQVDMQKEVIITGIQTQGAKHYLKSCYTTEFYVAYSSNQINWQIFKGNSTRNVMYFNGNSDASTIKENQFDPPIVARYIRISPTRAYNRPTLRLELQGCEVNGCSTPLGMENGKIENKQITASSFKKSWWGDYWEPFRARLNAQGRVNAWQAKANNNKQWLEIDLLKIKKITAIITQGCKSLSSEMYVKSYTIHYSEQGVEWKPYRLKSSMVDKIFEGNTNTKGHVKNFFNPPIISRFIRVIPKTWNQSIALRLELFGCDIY

Full-length recombinant factor V R506Q (FV Leiden), sequence (P12259 29-2224 R534Q): as the sequence (P12259 29-2224 W1948R) above, with R506Q, R1920W counted along it
Full-length wild-type recombinant factor V (FV-WT), sequence (P12259 29-2224): as the sequence (P12259 29-2224 W1948R) above, with R1920W counted along it

Molecule: Full-length recombinant factor V A2086D (FV Besançon) (from UniProt P12259 29-2224) (natural protein)
Kd [1]: 20.3 nM | koff [1]: 0.00268 s⁻¹ | kon [1]: 132000 M⁻¹ s⁻¹

Molecule: Full-length recombinant factor V R506Q (FV Leiden) (from UniProt P12259 29-2224) (natural protein)
Kd [1]: 19.1 nM | koff [1]: 0.00457 s⁻¹ | kon [1]: 239000 M⁻¹ s⁻¹

B1: Protein S (natural protein, UniProt P07225 42-676, looked up)
chain: ANSLLEETKQGNLERECIEELCNKEEAREVFENDPETDYFYPKYLVCLRSFQTGLFTAARQSTNAYPDLRSCVNAIPDQCSPLPCNEDGYMSCKDGKASFTCTCKPGWQGEKCEFDINECKDPSNINGGCSQICDNTPGSYHCSCKNGFVMLSNKKDCKDVDECSLKPSICGTAVCKNIPGDFECECPEGYRYNLKSKSCEDIDECSENMCAQLCVNYPGGYTCYCDGKKGFKLAQDQKSCEVVSVCLPLNLDTKYELLYLAEQFAGVVLYLKFRLPEISRFSAEFDFRTYDSEGVILYAESIDHSAWLLIALRGGKIEVQLKNEHTSKITTGGDVINNGLWNMVSVEELEHSISIKIAKEAVMDINKPGPLFKPENGLLETKVYFAGFPRKVESELIKPINPRLDGCIRSWNLMKQGASGIKEIIQEKQNKHCLVTVEKGSYYPGSGIAQFHIDYNNVSSAEGWHVNVTLNIRPSTGTGVMLALVSGNNTVPFAVSLVDSTSEKSQDILLSVENTVIYRIQALSLCSDQQSHLEFRVNRNNLELSTPLKIETISHEDLQRQLAVLDKAMKAKVATYLGGLPDVPFSATPVNAFYNGCMEVNINGVQLDLDEAISKHNDIRAHSCPSVWKKTKNS
Kd [2]: 7.56 nM | koff [2]: 0.00393 s⁻¹ | kon [2]: 520000 M⁻¹ s⁻¹ | Kd [3]: 5.26 nM | koff [3]: 0.00374 s⁻¹ | kon [3]: 711000 M⁻¹ s⁻¹ | Kd [4]: 26.2 nM | koff [4]: 0.00382 s⁻¹ | kon [4]: 145000 M⁻¹ s⁻¹

Continued by falling Kd [1], values first:

Kd [1]: 12.8 nM | koff [1]: 0.00433 s⁻¹ | kon [1]: 338000 M⁻¹ s⁻¹
Molecule: Full-length recombinant factor V W1920R (FV Nara) (from UniProt P12259 29-2224) (natural protein)

Kd [1]: 10.7 nM | koff [1]: 0.00359 s⁻¹ | kon [1]: 337000 M⁻¹ s⁻¹
Molecule: Full-length wild-type recombinant factor V (FV-WT) (from UniProt P12259 29-2224) (natural protein)
